We go through one substance from publication PMC3558696.

The target of this experiment is KERP1 (lysine and glutamic acid rich protein 1), recombinant full-length protein (Entamoeba histolytica (strain HM1:IMSS)). The experiment in a line: AUC.

One may read the stoichiometry N as the number of molecules, sites or subunits per partner or assembly. Turning to “KERP1 (lysine and glutamic acid rich protein 1), recombinant full-length protein (natural protein)”, the stoichiometry N came out at 3.
